The text below walks through data of article PMC9352680, “A comprehensive thermodynamic model for RNA binding by the Saccharomyces cerevisiae Pumilio protein PUF4”.

T1: PUF4 RNA-binding domain (Saccharomyces cerevisiae, UniProt P25339 537-888)
T1 sequence: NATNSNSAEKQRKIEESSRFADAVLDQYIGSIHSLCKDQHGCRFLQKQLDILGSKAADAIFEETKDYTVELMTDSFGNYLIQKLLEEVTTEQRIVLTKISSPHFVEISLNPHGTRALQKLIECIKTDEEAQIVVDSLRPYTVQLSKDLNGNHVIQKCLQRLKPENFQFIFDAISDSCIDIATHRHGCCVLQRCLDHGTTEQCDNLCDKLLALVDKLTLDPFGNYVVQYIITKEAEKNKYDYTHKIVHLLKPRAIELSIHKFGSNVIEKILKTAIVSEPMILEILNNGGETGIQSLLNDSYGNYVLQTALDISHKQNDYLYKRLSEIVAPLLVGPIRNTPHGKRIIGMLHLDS

The data set has as its target T1, PUF4 RNA-binding domain. The experiment in a line: Mg; RNA-MaP; 20 mM Na-HEPES pH 7.4, 30 mM KOAc, 0.75 mM MgCl2, 0.1% Tween-20, 5% glycerol, 0.1 mg/mL BSA, 2 mM DTT; 25 C; 0.0125-409.6 nM protein. As to conditions: tags: N-His6-TEV cleaved; C-SNAP kept, Cy3B-labelled; label: tethered on chip by stalled RNA polymerase.
The Kd is the concentration at which binding is half-saturated. Regarding UCUCUUUUACACUAUAAGUCUCUU (ssRNA) [Id_ii_S1_P3E.4_K3.3_C3.2_[C-2T]_H3.3_A3.1_F3.1_T3.2_[T9A]_[A10G]], the dissociation constant Kd is 1520 nM.
In turn, UCUCUUGUACACUAUAACUCUCUU (ssRNA) [Id_ii_S1_P3E.4_K3.3_C3.2_[C-2G]_H3.3_A3.1_F3.1_T3.2_[T9A]_[A10C]] gave an equilibrium dissociation constant (Kd) of 1.63 nM.
Next, UCUCUUAAACACUAUAGCUCUCUU (ssRNA) [Id_ii_S1_P3E.4_K3.3_C3.2_[C-2A]_[T-1A]_H3.3_A3.1_F3.1_T3.2_[T9G]_[A10C]]: greater than 2300 nM.
Turning to UCUCUUUCACACUAUAAUUCUCUU (ssRNA) [Id_ii_S1_P3E.4_K3.3_C3.2_[C-2T]_[T-1C]_H3.3_A3.1_F3.1_T3.2_[T9A]_[A10T]], the dissociation constant (Kd) was greater than 2300 nM.
On to UCUCUUCUUAUAUAUAAAUCUCUU (ssRNA) [Id_ii_S1_P3E.3_K3.2_C3.2_H3.2_A3.1_F3.1_T3.2_[T9A]], for which the Kd was 1180 nM.
As to UCUCUUAAACACUAUAACUCUCUU (ssRNA) [Id_ii_S1_P3E.4_K3.3_C3.2_[C-2A]_[T-1A]_H3.3_A3.1_F3.1_T3.2_[T9A]_[A10C]], the equilibrium dissociation constant (Kd) is greater than 2300 nM.
On to UCUCUUUGACACUAUAAUUCUCUU (ssRNA) [Id_ii_S1_P3E.4_K3.3_C3.2_[C-2T]_[T-1G]_H3.3_A3.1_F3.1_T3.2_[T9A]_[A10T]], for which the Kd was greater than 2300 nM.
In the case of UCUCUUGCACACUAUACCUCUCUU (ssRNA) [Id_ii_S1_P3E.4_K3.3_C3.2_[C-2G]_[T-1C]_H3.3_A3.1_F3.1_T3.2_[T9C]_[A10C]], the Kd came to 278 nM.
UCUCUUUUUAUCUUAUCUCUU (ssRNA) [Ib_S1_P4E.1_K4.1_C4.1_H4.1_[G2T]_A4.1_[A6C]_F4.1_T4.1] registered a Kd greater than 2300 nM.
Molecule UCUCUUCUUAUAUAUAUAUCUCUU (ssRNA) [Id_ii_S1_P3E.3_K3.2_C3.2_H3.2_A3.1_F3.1_T3.2] registered a Kd of 394 nM.
For the molecule UCUCUUUUACACUAUAGCUCUCUU (ssRNA) [Id_ii_S1_P3E.4_K3.3_C3.2_[C-2T]_H3.3_A3.1_F3.1_T3.2_[T9G]_[A10C]], the dissociation constant (Kd) was greater than 2300 nM.
For the molecule UCUCUUGUACACUAUACCUCUCUU (ssRNA) [Id_ii_S1_P3E.4_K3.3_C3.2_[C-2G]_H3.3_A3.1_F3.1_T3.2_[T9C]_[A10C]], the affinity, expressed as Kd, was 0.984 nM.
In turn, UCUCUUUUACACUAUACGUCUCUU (ssRNA) [Id_ii_S1_P3E.4_K3.3_C3.2_[C-2T]_H3.3_A3.1_F3.1_T3.2_[T9C]_[A10G]] gave a Kd of 2060 nM.
In turn, UCUCUUUGACACUAUAAAUCUCUU (ssRNA) [Id_ii_S1_P3E.4_K3.3_C3.2_[C-2T]_[T-1G]_H3.3_A3.1_F3.1_T3.2_[T9A]] gave a Kd greater than 2300 nM.
The molecule UCUCUUUGUAUAGUAUCUCUU (ssRNA) [Ia_S1_P4E.1_K4.1_C4.1_H4.1_A4.1_[T7G]_F4.1_T4.1] came in with a dissociation constant Kd of 2.25 nM.
Consider UCUCUUGUACACUAUAUUUCUCUU (ssRNA) [Id_ii_S1_P3E.4_K3.3_C3.2_[C-2G]_H3.3_A3.1_F3.1_T3.2_[A10T]], for which the Kd came out at 0.901 nM.
Next, UCUCUUUUACACUAUAUGUCUCUU (ssRNA) [Id_ii_S1_P3E.4_K3.3_C3.2_[C-2T]_H3.3_A3.1_F3.1_T3.2_[A10G]]: 2220 nM; UCUCUUGCACACUAUAACUCUCUU (ssRNA) [Id_ii_S1_P3E.4_K3.3_C3.2_[C-2G]_[T-1C]_H3.3_A3.1_F3.1_T3.2_[T9A]_[A10C]]: 110 nM; UCUCUUUAUAUGUUAUCUCUU (ssRNA) [Ib_S1_P4E.1_K4.1_C4.1_H4.1_[G2A]_A4.1_[A6G]_F4.1_T4.1]: 635 nM.
Next, UCUCUUUAUAUUUUAUCUCUU (ssRNA) [Ib_S1_P4E.1_K4.1_C4.1_H4.1_[G2A]_A4.1_[A6T]_F4.1_T4.1]: 163 nM.
The value for UCUCUUGCACACUAUAUUUCUCUU (ssRNA) [Id_ii_S1_P3E.4_K3.3_C3.2_[C-2G]_[T-1C]_H3.3_A3.1_F3.1_T3.2_[A10T]] was 94.8 nM; that for UCUCUUUGACACUAUACAUCUCUU (ssRNA) [Id_ii_S1_P3E.4_K3.3_C3.2_[C-2T]_[T-1G]_H3.3_A3.1_F3.1_T3.2_[T9C]] was greater than 2300 nM; that for UCUCUUAGACACUAUAUCUCUCUU (ssRNA) [Id_ii_S1_P3E.4_K3.3_C3.2_[C-2A]_[T-1G]_H3.3_A3.1_F3.1_T3.2_[A10C]] was greater than 2300 nM.
UCUCUUCUUAUAUAUAUCUCUCUU (ssRNA) [Id_ii_S1_P3E.3_K3.2_C3.2_H3.2_A3.1_F3.1_T3.2_[A10C]] gave a Kd of 600 nM.
UCUCUUUCACACUAUACCUCUCUU (ssRNA) [Id_ii_S1_P3E.4_K3.3_C3.2_[C-2T]_[T-1C]_H3.3_A3.1_F3.1_T3.2_[T9C]_[A10C]] yielded a dissociation constant Kd greater than 2300 nM.
UCUCUUUAACACUAUACGUCUCUU (ssRNA) [Id_ii_S1_P3E.4_K3.3_C3.2_[C-2T]_[T-1A]_H3.3_A3.1_F3.1_T3.2_[T9C]_[A10G]] gave a Kd greater than 2300 nM.
UCUCUUAGACACUAUAUUUCUCUU (ssRNA) [Id_ii_S1_P3E.4_K3.3_C3.2_[C-2A]_[T-1G]_H3.3_A3.1_F3.1_T3.2_[A10T]] came in with a dissociation constant (Kd) greater than 2300 nM.
With UCUCUUGCACACUAUACAUCUCUU (ssRNA) [Id_ii_S1_P3E.4_K3.3_C3.2_[C-2G]_[T-1C]_H3.3_A3.1_F3.1_T3.2_[T9C]], the affinity, expressed as Kd, was 275 nM.
UCUCUUUUACACUAUAAUUCUCUU (ssRNA) [Id_ii_S1_P3E.4_K3.3_C3.2_[C-2T]_H3.3_A3.1_F3.1_T3.2_[T9A]_[A10T]] registered a dissociation constant Kd greater than 2300 nM.
